Measurements taken from patent publication US20190040138A1.

Biological target: PD-1 antigen stably expressed on the surface of BB007 cells (UniProt Q15116)
Assay: flow cytometry on BB007 cells; control, printed under the column 0 nM

PD-1 antigen stably expressed on the surface of BB007 cells, sequence (Q15116 25-288 limits assumed): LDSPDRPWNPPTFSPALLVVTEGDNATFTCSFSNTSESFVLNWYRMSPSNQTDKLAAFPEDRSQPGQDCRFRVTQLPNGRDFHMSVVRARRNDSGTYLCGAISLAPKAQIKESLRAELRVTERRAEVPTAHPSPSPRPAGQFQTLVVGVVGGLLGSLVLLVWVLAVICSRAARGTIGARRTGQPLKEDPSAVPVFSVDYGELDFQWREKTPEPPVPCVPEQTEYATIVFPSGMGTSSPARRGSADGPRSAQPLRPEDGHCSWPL

fluorescence intensity: 7.4
Substance: hIgG (antibody)
